From patent publication US20080201790A1 (published 2008)

B1: recombinant MEKK4 protein expressed in E. coli, residues 1261-1597 of the full length protein (enzyme)
chain: RRSWELRTLISQTKDSASKQGPIEAIQKSVRLFEERRYREMRRKNIIGQVCDTPKSYDNVMHVGLRKVTFKWQRGNKIGEGQYGKVYTCISVDTGELMAMKEIRFQPNDHKTIKETADELKIFEGIKHPNLVRYFGVELHREEMYIFMEYCDEGTLEEVSRLGLQEHVIRLYTKQITVAINVLHEHGIVHRDIKGANIFLTSSGLIKLGDFGCSVKLKNNAQTMPGEVNSTLGTAAYMAPEVITRAKGEGHGRAADIWSLGCVVIEMVTGKRPWHEYEHNFQIMYKVGMGHKPPIPERLSPEGKAFLSHCLESDPKIRWTASQLLDHAFVKVCTDEE
notes: No tag is stated; also called truncated recombinant MEKK4
B2: MEKK4 from a Cos cell transient transfection (enzyme)
chain: MRDAIAEPVPPPALADTPAAAMEELRPAPPPQPEPDPECCPAARQECMLGESARKSMESDPEDFSDETNTETLYGTSPPSTPRQMKRLSAKHQRNSAGRPASRSNLKEKMNTPSQSPHKDLGKGVETVEEYSYKQEKKIRATLRTTERDHKKNAQCSFMLDSVAGSLPKKSIPDVDLNKPYLSLGCSNAKLPVSMPMPIARTARQTSRTDCPADRLKFFETLRLLLKLTSVSKKKDREQRGQENTAAFWFNRSNELIWLELQAWHAGRTINDQDLFLYTARQAIPDIINEILTFKVNYGSIAFSSNGAGFNGPLVEGQCRTPQETNRVGCSSYHEHLQRQRVSFEQVKRIMELLEYMEALYPSLQALQKDYERYAAKDFEDRVQALCLWLNITKDLNQKLRIMGTVLGIKNLSDIGWPVFEIPSPRPSKGYEPEDEVEDTEVELRELESGTEESDEEPTPSPRVPELRLSTDTILDSRSQGCVSRKLERLESEEDSIGWGTADCGPEASRHCLTSIYRPFVDKALKQMGLRKLILRLHKLMNGSLQRARVALVKDDRPVEFSDFPGPMWGSDYVQLSGTPPSSEQKCSAVSWEELRAMDLPSFEPAFLVLCRVLLNVIHECLKLRLEQRPAGEPSLLSIKQLVRECKEVLKGGLLMKQYYQFMLQEVLGGLEKTDCNMDAFEEDLQKMLMVYFDYMRSWIQMLQQLPQASHSLKNLLEEEWNFTKEITHYIRGGEAQAGKLFCDIAGMLLKSTGSFLESGLQESCAELWTSADDNGAADELRRSVIEISRALKELFHEARERASKALGFAKMLRKDLEIAAEFVLSASARELLDALKAKQYVKVQIPGLENLHVFVPDSLAEEKKIILQLLNAATGKDCSKDPDDVFMDAFLLLTKHGDRARDSEDGWGTWEARAVKIVPQVETVDTLRSMQVDNLLLVVMESAHLVLQRKAFQQSIEGLMTVRHEQTSSQPIIAKGLQQLKNDALELCNRISDAIDRVDHMFTLEFDAEVEESESATLQQYYREAMIQGYNFGFEYHKEVVRLMSGEFRQKIGDKYISFAQKWMNYVLTKCESGRGTRPRWATQGFDFLQAIEPAFISALPEDDFLSLQALMNECIGHVIGKPHSPVTAIHRNSPRPVKVPRCHSDPPNPHLIIPTPEGFSTRSVPSDARTHGNSVAAAAAVRAAATTAAGRPGPGGGDSVPAKPVNTAPDTRGSSVPENDRLASIAAELQFRSLSRHSSPTEERDEPAYPRSDSSGSTRRSWELRTLISQTKDSASKQGPIEAIQKSVRLFEERRYREMRRKNIIGQVCDTPKSYDNVMHVGLRKVTFKWQRGNKIGEGQYGKVYTCISVDTGELMAMKEIRFQPNDHKTIKETADELKIFEGIKHPNLVRYFGVELHREEMYIFMEYCDEGTLEEVSRLGLQEHVIRLYTKQITVAINVLHEHGIVHRDIKGANIFLTSSGLIKLGDFGCSVKLKNNAQTMPGEVNSTLGTAAYMAPEVITRAKGEGHGRAADIWSLGCVVIEMVTGKRPWHEYEHNFQIMYKVGMGHKPPIPERLSPEGKAFLSHCLESDPKIRWTASQLLDHAFVKVCTDEE
notes: also called MEKK4.2

Experiments:
Assay in all cases: GST fusion pull-down on glutathione-Sepharose, anti-MEKK4 immunoblot
[1] = target: T1, GST fusion protein of Ha-Ras (GTPγS bound) on glutathione-Sepharose (UniProt P08515 1-218 = GST; P01112 1-189)
T1 construct: also called GST-Ras
Method: (§1) Each GST fusion protein had GTPγs or GDP bound to the Cdc42, Rac or Ras moiety of the fusion protein. Following the incubation the beads were washed extensively and the bound proteins removed in SDS-Laemmli buffer and resolved by SDS-PAGE using 10% acrylamide gels.

[2] = target: T2, GST-Cdc42 (GDP bound) on glutathione-Sepharose (UniProt P60953 1-191)
T2 construct: Loaded with GDP; not shown: glutathione S-transferase fusion partner
Method: as §1

[3] = target: T3, GST-Rac (GDP bound) on glutathione-Sepharose (UniProt P08515 1-218 = GST)
T3 construct: Loaded with GDP
Method: as §1

[4] = target: T4, GST fusion protein of Ha-Ras (GDP bound) on glutathione-Sepharose (UniProt P08515 1-218 = GST; P01112 1-189)
T4 construct: also called GST-Ras
Method: as §1

T2 sequence (P60953 whole entry, the tested form may be a part): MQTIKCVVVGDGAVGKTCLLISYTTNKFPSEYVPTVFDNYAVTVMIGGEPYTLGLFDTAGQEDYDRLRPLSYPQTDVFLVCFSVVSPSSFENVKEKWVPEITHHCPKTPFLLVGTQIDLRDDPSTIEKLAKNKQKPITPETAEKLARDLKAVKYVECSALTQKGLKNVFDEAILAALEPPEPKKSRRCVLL
T3 sequence (P08515 whole entry): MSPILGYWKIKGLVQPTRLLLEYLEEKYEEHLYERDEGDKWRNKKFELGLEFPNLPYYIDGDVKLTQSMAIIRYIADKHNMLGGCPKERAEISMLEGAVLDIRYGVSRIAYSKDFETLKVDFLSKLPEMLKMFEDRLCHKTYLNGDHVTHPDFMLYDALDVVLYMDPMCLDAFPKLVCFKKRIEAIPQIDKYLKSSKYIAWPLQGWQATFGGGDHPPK
T1 sequence (P08515 1-218, tags or fused parts left off): as the sequence (P08515 whole entry) above
T4 sequence (P08515 1-218, tags or fused parts left off): as the sequence (P08515 whole entry) above

Binder	binding result [1]	percent of the MEKK4 bound in the presence of GTPγS [2] [%]	percent of the MEKK4 bound in the presence of GTPγS [3] [%]	binding result [4]
B1	no binding	< 10	< 10	no binding
B2		< 10	< 10	
